Consider one molecule from article PMC4831024 (Nature Communications, 2016).

This assay addresses T1, Ku heterodimer (Ku70/Ku80), full length, recombinant human (human, UniProt P12956 1-609; P13010 1-732).
T1 construct: Ku70, human; Ku80, human; also called recombinant Ku; full-length Ku heterodimer; source: insect cells, baculovirus expression system, purified (immobilized metal-chelate chromatography, gel filtration)
Description: pull-down; 50 nM Strep-tagged WRN protein immobilised on Streptavidin Mag Sepharose beads, 50 nM recombinant untagged Ku, 1 h at 4 °C; 20 mM Hepes pH 7.5, 150 mM NaCl, 5% glycerol, 0.5 mM TCEP, 0.05% IGEPAL-CA640; SDS–PAGE, Coomassie/Instant Blue. Particulars: both partners purified.

T1 sequence (P12956 whole entry, chain 1 of 2): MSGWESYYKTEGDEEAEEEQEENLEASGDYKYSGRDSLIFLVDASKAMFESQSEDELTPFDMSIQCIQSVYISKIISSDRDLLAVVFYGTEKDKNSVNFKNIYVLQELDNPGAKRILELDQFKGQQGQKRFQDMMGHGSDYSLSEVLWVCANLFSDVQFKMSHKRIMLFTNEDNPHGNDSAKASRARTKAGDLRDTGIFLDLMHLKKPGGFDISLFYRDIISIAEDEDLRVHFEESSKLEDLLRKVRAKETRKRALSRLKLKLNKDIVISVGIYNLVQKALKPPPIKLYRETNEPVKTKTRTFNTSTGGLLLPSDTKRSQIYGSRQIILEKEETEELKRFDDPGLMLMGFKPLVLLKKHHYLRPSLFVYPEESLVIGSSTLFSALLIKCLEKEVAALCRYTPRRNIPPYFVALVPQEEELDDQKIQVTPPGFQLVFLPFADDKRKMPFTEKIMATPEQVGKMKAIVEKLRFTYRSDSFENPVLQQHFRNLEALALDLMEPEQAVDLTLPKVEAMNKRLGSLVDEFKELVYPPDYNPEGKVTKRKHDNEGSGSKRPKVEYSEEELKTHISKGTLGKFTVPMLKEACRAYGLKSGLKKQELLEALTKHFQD
T1 sequence (P13010 whole entry, chain 2 of 2): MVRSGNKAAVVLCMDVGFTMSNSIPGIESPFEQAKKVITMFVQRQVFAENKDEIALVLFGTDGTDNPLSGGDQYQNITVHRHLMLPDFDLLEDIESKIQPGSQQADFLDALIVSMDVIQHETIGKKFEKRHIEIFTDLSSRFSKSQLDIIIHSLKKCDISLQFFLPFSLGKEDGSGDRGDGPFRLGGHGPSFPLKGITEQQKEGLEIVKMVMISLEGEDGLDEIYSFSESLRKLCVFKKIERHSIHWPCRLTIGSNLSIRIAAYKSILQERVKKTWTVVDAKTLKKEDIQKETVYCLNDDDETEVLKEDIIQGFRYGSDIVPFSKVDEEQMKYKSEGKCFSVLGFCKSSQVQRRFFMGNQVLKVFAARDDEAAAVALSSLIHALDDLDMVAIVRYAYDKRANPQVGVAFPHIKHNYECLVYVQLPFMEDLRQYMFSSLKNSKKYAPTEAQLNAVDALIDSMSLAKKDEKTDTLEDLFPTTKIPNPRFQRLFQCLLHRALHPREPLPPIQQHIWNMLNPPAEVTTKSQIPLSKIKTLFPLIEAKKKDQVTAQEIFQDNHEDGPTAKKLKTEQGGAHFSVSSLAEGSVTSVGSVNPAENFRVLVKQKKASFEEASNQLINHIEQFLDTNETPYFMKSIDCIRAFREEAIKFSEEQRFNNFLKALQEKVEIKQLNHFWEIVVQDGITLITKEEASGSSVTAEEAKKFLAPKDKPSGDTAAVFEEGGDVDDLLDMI

B1: Strep-tagged WRN^W18G (natural protein)
chain: not shown
notes: Werner syndrome protein (WRN), human, full length, W18G; source: insect cells, baculovirus expression system, purified (Strep-Tactin Superflow Plus cartridge, Superose 6 gel filtration)
On to B1, for which the binding result is given as “binds”.
